Reference: the supplement of paper PMC7125110
± gives the standard error. For part of these data: This sample holds only a part of the variants without activity.

B1: glmS ribozyme (parent)
chain: AUAAAAGCGCCAGAACUACAGAAAUGUAGUUGACGAGGAGGAGGUUUAUCGAAUUUUCGGCGGAUGCCUCCAAA

Tests used:
Conditions in all cases: with glucosamine-6-phosphate
glucosamine-6-phosphate [1] = variants of: B1; assay: kcat; higher = faster cleavage; RNA array
Method in brief: (§1)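 Barcoded ribozyme variants, transcribed in situ by E. coli RNA polymerase on sequenced MiSeq chips, were followed via a hybridised Cy3 probe at 37 °C. Glucosamine-6-phosphate ranged from 40 μM to 10 mM in HEPES/KCl/Mg(OAc)2 buffer. kobs came from decay fits to per-tile medians, and kcat and KM from weighted Michaelis–Menten fits.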

glucosamine-6-phosphate [2] = variants of: B1; assay: KM; higher = weaker cofactor use; RNA array
Method in brief: as §1

glucosamine-6-phosphate [3] = variants of: B1; assay: self-cleavage kobs at 640 uM GlcN6P; higher = faster cleavage; RNA array
Method in brief: as §1

glucosamine-6-phosphate [4] = variants of: B1; assay: self-cleavage kobs at 2500 uM GlcN6P; higher = faster cleavage; RNA array
Method in brief: as §1

glucosamine-6-phosphate [5] = variants of: B1; assay: self-cleavage kobs at 10000 uM GlcN6P; higher = faster cleavage; RNA array
Method in brief: as §1

glucosamine-6-phosphate [6] = variants of: B1; assay: self-cleavage kobs at 40 uM GlcN6P; higher = faster cleavage; RNA array
Method in brief: as §1

glucosamine-6-phosphate [7] = variants of: B1; assay: self-cleavage kobs at 160 uM GlcN6P; higher = faster cleavage; RNA array
Method in brief: as §1

Variant: AUAAAAGCGCCAGAACUACAGAAAUGUAGUUGACGAGGAGGAGGUAUAUCGAAUUUUCGGCGGAUGCCUACAAA [U46A C70A]
- kcat (glucosamine-6-phosphate [1]): 0.000184 ± 2.2e-05 s⁻¹
- KM (glucosamine-6-phosphate [2]): 633 ± 260 µM
- self-cleavage kobs at 640 uM GlcN6P (glucosamine-6-phosphate [3]): 0.000115 ± 2.6e-05 s⁻¹
- self-cleavage kobs at 2500 uM GlcN6P (glucosamine-6-phosphate [4]): 0.000146 ± 2.7e-05 s⁻¹
- self-cleavage kobs at 10000 uM GlcN6P (glucosamine-6-phosphate [5]): 0.000167 ± 2.9e-05 s⁻¹

Variant: AUAAAAGCGCCAGAACUACAGAAAUGUAGUUGACGAGGAGGAGGUAUAUCGAAUUUUCGGCGGAUGUCUCCAAA [U46A C67U]
- kcat (glucosamine-6-phosphate [1]): 0.00326 ± 0.0007 s⁻¹
- KM (glucosamine-6-phosphate [2]): 2370 ± 780 µM
- self-cleavage kobs at 40 uM GlcN6P (glucosamine-6-phosphate [6]): 9.11e-05 ± 2.1e-05 s⁻¹
- self-cleavage kobs at 160 uM GlcN6P (glucosamine-6-phosphate [7]): 0.000165 ± 2.9e-05 s⁻¹
- self-cleavage kobs at 640 uM GlcN6P (glucosamine-6-phosphate [3]): 0.000811 ± 0.00012 s⁻¹
- self-cleavage kobs at 2500 uM GlcN6P (glucosamine-6-phosphate [4]): 0.00173 ± 0.00027 s⁻¹
- self-cleavage kobs at 10000 uM GlcN6P (glucosamine-6-phosphate [5]): 0.00257 ± 0.00033 s⁻¹

Variant: AUAAAAGCGCCAGAACUACAGAAAUGUAGUUGACGAGGAGGAGGUAUAUCGAAUUUUCGGCAGAUGCCUCCAAA [U46A G62A]
- kcat (glucosamine-6-phosphate [1]): < 1e-05 s⁻¹
- self-cleavage kobs at 40 uM GlcN6P (glucosamine-6-phosphate [6]): < 1e-05 s⁻¹
- self-cleavage kobs at 2500 uM GlcN6P (glucosamine-6-phosphate [4]): < 1e-05 s⁻¹

Variant: AUAAAAGCGCCAGAACUACAGAAAUGUAGUUGACGAGGAGGAGGUAUAUCGAAUUUUCGGCGGAUGCCUCAAAA [U46A C71A]
- kcat (glucosamine-6-phosphate [1]): 0.00108 ± 0.00054 s⁻¹
- self-cleavage kobs at 640 uM GlcN6P (glucosamine-6-phosphate [3]): 0.000259 ± 5.1e-05 s⁻¹
- self-cleavage kobs at 2500 uM GlcN6P (glucosamine-6-phosphate [4]): 0.000566 ± 0.00015 s⁻¹
- self-cleavage kobs at 10000 uM GlcN6P (glucosamine-6-phosphate [5]): 0.000724 ± 0.00023 s⁻¹

Variant: AUAAAAGCGCCAGAACUACAGAAAUGUAGUUGACGAGGAGGAGGUAUAUCGAAUUUUCGGCGGAUGCGUCCAAA [U46A C68G]
- kcat (glucosamine-6-phosphate [1]): 2.56e-05 ± 5.1e-06 s⁻¹
- self-cleavage kobs at 40 uM GlcN6P (glucosamine-6-phosphate [6]): < 1e-05 s⁻¹
- self-cleavage kobs at 2500 uM GlcN6P (glucosamine-6-phosphate [4]): 3.32e-05 ± 1.5e-05 s⁻¹

Variant: AUAAAAGCGCCAGAACUACAGAAAUGUAGUUGACGAGGAGGAGGUAAAUCGAAUUUUCGGCGGAUGCCUCCAAA [U46A U47A]
- kcat (glucosamine-6-phosphate [1]): 0.00774 ± 0.0022 s⁻¹
- KM (glucosamine-6-phosphate [2]): 2510 ± 920 µM
- self-cleavage kobs at 40 uM GlcN6P (glucosamine-6-phosphate [6]): 0.000207 ± 4.9e-05 s⁻¹
- self-cleavage kobs at 160 uM GlcN6P (glucosamine-6-phosphate [7]): 0.000426 ± 6.1e-05 s⁻¹
- self-cleavage kobs at 640 uM GlcN6P (glucosamine-6-phosphate [3]): 0.00159 ± 0.00033 s⁻¹
- self-cleavage kobs at 2500 uM GlcN6P (glucosamine-6-phosphate [4]): 0.00385 ± 0.00067 s⁻¹
- self-cleavage kobs at 10000 uM GlcN6P (glucosamine-6-phosphate [5]): 0.00631 ± 0.0017 s⁻¹

Variant: AUAAAAGCGCCAGAACUACAGAAAUGUAGUUGACGAGGAGGAGGUAUAUCGAAUUUUCGGCGGAUUCCUCCAAA [U46A G66U]
- kcat (glucosamine-6-phosphate [1]): 0.0037 ± 0.001 s⁻¹
- KM (glucosamine-6-phosphate [2]): 5940 ± 2100 µM
- self-cleavage kobs at 40 uM GlcN6P (glucosamine-6-phosphate [6]): 5.04e-05 ± 2.3e-05 s⁻¹
- self-cleavage kobs at 160 uM GlcN6P (glucosamine-6-phosphate [7]): 8.12e-05 ± 1.9e-05 s⁻¹
- self-cleavage kobs at 640 uM GlcN6P (glucosamine-6-phosphate [3]): 0.000412 ± 7.3e-05 s⁻¹
- self-cleavage kobs at 2500 uM GlcN6P (glucosamine-6-phosphate [4]): 0.00111 ± 0.00027 s⁻¹
- self-cleavage kobs at 10000 uM GlcN6P (glucosamine-6-phosphate [5]): 0.00229 ± 0.00041 s⁻¹

Variant: AUAAAAGCGCCAGAACUACAGAAAUGUAGUUGACGAGGAGGAGGUAUAUCGAAUUUUCGGCGGAUCCCUCCAAA [U46A G66C]
- kcat (glucosamine-6-phosphate [1]): 0.00211 ± 0.0008 s⁻¹
- self-cleavage kobs at 40 uM GlcN6P (glucosamine-6-phosphate [6]): 5.47e-05 ± 1.7e-05 s⁻¹
- self-cleavage kobs at 160 uM GlcN6P (glucosamine-6-phosphate [7]): 0.000161 ± 4.3e-05 s⁻¹
- self-cleavage kobs at 640 uM GlcN6P (glucosamine-6-phosphate [3]): 0.00053 ± 0.00011 s⁻¹
- self-cleavage kobs at 2500 uM GlcN6P (glucosamine-6-phosphate [4]): 0.000776 ± 0.00018 s⁻¹
- self-cleavage kobs at 10000 uM GlcN6P (glucosamine-6-phosphate [5]): 0.00237 ± 0.00038 s⁻¹
